PMC9570423
pKd: −log10 of the molar value.

Legend:
[1] = target: PagRBc, PagR homologue (ArsR/SmtB family transcription factor) of emetic B. cereus F4810/72, encoded on pCER270 (Bacillus cereus F4810/72 (emetic reference strain)); assay: two-hybrid
[2] = tested on: PagRBc (Bacillus cereus F4810/72 (AH187), plasmid pCER270); assay: EMSA
[3] = tested on: PagRBa (PagR) (Bacillus anthracis Sterne, plasmid pXO1); assay: EMSA
[4] = tested on: PagR1Bc (Bacillus cereus F4810/72 (AH187), plasmid pCER270); assay: EMSA

| Substance | fold of self-interaction (β-galactosidase activity) against the self-interaction of PagR1Bc [1] [fold] | pKd [2] | pKd [3] | pKd [4] |
| --- | --- | --- | --- | --- |
| PagRBc, PagR homologue (ArsR/SmtB family transcription factor) of emetic B. cereus F4810/72, encoded on pCER270 (natural protein) | 1.75 |  |  |  |
| cesP main promoter (cesPII), 523 bp |  | 7.60 | 7.60 | 6.82 |
